Experimental findings from PMC10648341, “Cloning and Functional Characterization of NADPH-Cytochrome P450 Reductases in Aconitum vilmorinianum” (Molecules, 2023) are described below.

One experiment addresses T1, CYP76AH1 (Salvia miltiorrhiza, UniProt S4UX02).
T1 construct: ORF in pESC-His, co-expressed with AvCPR1 (also AvCPR2 or SmCPR1) in miltiradiene-producing yeast YJ14; with NADPH--cytochrome P450 reductase 1 (Aconitum vilmorinianum)
T1 sequence (S4UX02 1-495): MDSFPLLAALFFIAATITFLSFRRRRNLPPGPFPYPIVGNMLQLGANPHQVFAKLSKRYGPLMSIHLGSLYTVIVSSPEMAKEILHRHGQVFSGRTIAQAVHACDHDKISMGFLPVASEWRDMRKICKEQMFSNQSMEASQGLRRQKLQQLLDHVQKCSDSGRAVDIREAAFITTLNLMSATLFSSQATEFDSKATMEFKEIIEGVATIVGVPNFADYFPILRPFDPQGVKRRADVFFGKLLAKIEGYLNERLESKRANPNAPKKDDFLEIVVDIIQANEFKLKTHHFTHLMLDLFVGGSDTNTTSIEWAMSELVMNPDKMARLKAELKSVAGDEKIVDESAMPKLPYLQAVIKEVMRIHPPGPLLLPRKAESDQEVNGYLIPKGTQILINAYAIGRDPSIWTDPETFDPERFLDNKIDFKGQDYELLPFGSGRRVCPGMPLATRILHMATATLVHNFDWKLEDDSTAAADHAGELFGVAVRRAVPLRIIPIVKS
Description: HPLC of yeast extracts, ferruginol formation. The settings on record: miltiradiene made by host yeast YJ14; co-expressed AvCPR1, AvCPR2 or SmCPR1. It is filed as cell-based.

Another experiment concerns the target cytochrome c (UniProt P00004).

Sequence of cytochrome c (P00004 whole entry): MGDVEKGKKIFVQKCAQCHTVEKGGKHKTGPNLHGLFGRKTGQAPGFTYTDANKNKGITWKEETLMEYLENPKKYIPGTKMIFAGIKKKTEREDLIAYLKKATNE

In the case of `CC(C)c1cc2c(cc1O)[C@@]1(C)CCCC(C)(C)[C@@H]1CC2` [ferruginol], the “HPLC of yeast extracts, ferruginol formation” value at CYP76AH1 is on record as “transgenic strains co-expressing AvCPRs or SmCPR with CYP76AH1 produced ferruginol”.

Consider “truncated AvCPR2 (NADPH-cytochrome P450 reductase 2 of Aconitum vilmorinianum, without the N-terminal membrane-anchoring region) (enzyme)”, for which, in the experiment with cytochrome c, the Km for cytochrome c: steady-state reduction of cytochrome c (0-200 μM) by 4 μg recombinant enzyme with 100 μmol/L NADPH, absorbance at 550 nm, 100 mM Tris-HCl, 0.1 mM EDTA, pH 7.4, 25 °C stood at 78.1 μmol·L^−1. Consider “truncated AvCPR1 (NADPH-cytochrome P450 reductase 1 of Aconitum vilmorinianum, without the N-terminal membrane-anchoring region) (enzyme)”, for which, in the experiment with cytochrome c, the Km for cytochrome c: steady-state reduction of cytochrome c (0-200 μM) by 4 μg recombinant enzyme with 100 μmol/L NADPH, absorbance at 550 nm, 100 mM Tris-HCl, 0.1 mM EDTA, pH 7.4, 25 °C was 344 μmol·L^−1.
